Data as given in patent publication US20040248211A1, “ICAM-related protein” (priority 1992, published 2004).

System: CEM cells
Assay: Detergent resistance (cytoskeleton association) assay, CEM
Assay type: cell-based, human
Experimental: PBL or washed CEM cell suspensions ([…]) were dispensed into Falcon 12×75 mm tubes in ice-cold PBS-5% FBS, pelleted, and resuspended in 50 μl of FITC-conjugated anti-ICAM-R monoclonal antibody 26E3D-1 or 26I10E-2 adjusted to saturating concentration in the same buffer. Antibody binding was permitted to proceed for 30 minutes on ice, afterwhich unbound antibody was removed by pelleting cells which had first been resuspended in 1 ml of […] through an underlaid cushion (0.7 ml) of neat (undiluted) FBS.
For groups stained with FITC-conjugated monoclonal antibody only, the 1 ml suspension was divided into two equal parts, each of which was separately underlaid with FBS, centrifuged, and the supernatant removed by aspiration. Cell pellets were then resuspended in 200 ul of control buffer (13 mM Tris pH 8.0, 150 mM NaCl, 2 mM MgCl2, 2 mM EGTA, 2% FBS, 2.5 ug/ml aprotinin, 1 mM PMSF, 10 mM iodoacetamide) or detergent buffer [0.5% NP-40 (v/v) (US Biochemical, Cleveland, Ohio) in control buffer] and held for 20 minutes at room temperature, or overnight at 4° C., prior to FACS analysis. For groups in which cell surface-bound monoclonal antibody was crosslinked with secondary antibodies, following the first antibody staining step, washed cell pellets were resuspended in 50 ul of FITC-goat anti-mouse IgG (Sigma) diluted 1:100 in PBS-5% FCS and incubated for 30 minutes on ice. […]

B1: ICR-1.1: anti-ICAM-R monoclonal antibody, IgG2a, domain 1, ATCC HB 11053 (antibody, V domains shown)
VH: QVQLQQSGAELAKPGASVKMSCKASGYTFTVYWMHWVKQRPGQGLEWIGYINPNTDYTEYNQRFQDKATLTADKSSSTAYMQLSSLTSEDSAVYYCARWGGNSYGLDYWGQGTSVTVSS
VL: QIVLTQSPALMSASPGEKVTMTCSASSSVSYIYWYQQKPRSSPKPWIYLTSNLASGVPARFSGSGSGASYSLTISIMEAEDAATYYCQQWKSIPLTFGAGTKLELK
greater increase in detergent resistance, crosslinked antibody (CEM): 2-3 fold | ICAM-R association with cytoskeleton (detergent resistance), antibody alone (FITC-conjugated antibody, similar in PBL): negligible
